To fix the notation:
B1: Mothers against decapentaplegic homolog 6 (Homo sapiens), O43541 (parent)
chain: MFRSKRSGLVRRLWRSRVVPDREEGGSGGGGGGDEDGSLGSRAEPAPRAREGGGCGRSEVRPVAPRRPRDAVGQRGAQGAGRRRRAGGPPRPMSEPGAGAGSSLLDVAEPGGPGWLPESDCETVTCCLFSERDAAGAPRDASDPLAGAALEPAGGGRSREARSRLLLLEQELKTVTYSLLKRLKERSLDTLLEAVESRGGVPGGCVLVPRADLRLGGQPAPPQLLLGRLFRWPDLQHAVELKPLCGCHSFAAAADGPTVCCNPYHFSRLCGPESPPPPYSRLSPRDEYKPLDLSDSTLSYTETEATNSLITAPGEFSDASMSPDATKPSHWCSVAYWEHRTRVGRLYAVYDQAVSIFYDLPQGSGFCLGQLNLEQRSESVRRTRSKIGFGILLSKEPDGVWAYNRGEHPIFVNSPTLDAPGGRALVVRKVPPGYSIKVFDFERSGLQHAPEPDAADGPYDPNSVRISFAKGWGPCYSRQFITSCPCWLEILLNNPR

The values below come from IntAct's records for PubMed 9436979.

This test covers variants of B1. The settings on record: with smad1_human SMAD1, Q15797.
smad1_human SMAD1, Q15797, sequence (Q15797 whole entry): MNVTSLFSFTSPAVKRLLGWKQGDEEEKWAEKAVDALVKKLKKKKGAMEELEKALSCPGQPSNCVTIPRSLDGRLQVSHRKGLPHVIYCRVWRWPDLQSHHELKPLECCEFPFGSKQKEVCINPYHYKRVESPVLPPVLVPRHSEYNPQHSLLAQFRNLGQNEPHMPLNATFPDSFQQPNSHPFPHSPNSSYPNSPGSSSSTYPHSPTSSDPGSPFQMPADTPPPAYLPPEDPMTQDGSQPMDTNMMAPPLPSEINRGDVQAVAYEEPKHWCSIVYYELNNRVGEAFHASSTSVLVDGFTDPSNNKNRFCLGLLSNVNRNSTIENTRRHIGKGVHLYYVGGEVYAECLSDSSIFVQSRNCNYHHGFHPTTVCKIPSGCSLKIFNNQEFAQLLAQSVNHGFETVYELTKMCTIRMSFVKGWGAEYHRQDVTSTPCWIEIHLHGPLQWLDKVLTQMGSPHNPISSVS
With MFRSKRSGLVRRLWRSRVVPDREEGGSGGGGGGDEDGSLGSRAEPAPRAREGGGCGRSEVRPVAPRRPRDAVGQRGAQGAGRRRRAGGPPRPMSEPGAGAGSSLLDVAEPGGPGWLPESDCETVTCCLFSERDAAGAPRDASDPLAGAALEPAGGGRSREARSRLLLLEQELKTVTYSLLKRLKERSLDTLLEAVESRGGVPGGCVLVPRADLRLGGQPAPPQLLLGRLFRWPDLQHAVELKPLCGCHSFAAAADGPTVCCNPYHFSRLCGPESPPPPYSRLSPRDEYKPLDLSDSTLSYTETEATNSLITAPGEFSDASMSPDATKPSHWCSVAYWEHRTRVGRLYAVYDQAVSIFYDLPQGSGFCLGQLNLEQRSESVRRTRSKIGFGILLSKEPDGVWAYNRGEHPIFVNSPTLDAPGGRALVVRKVPPGYSIKVFDFERSGLQHAPEPDAADGPYDPNSVRISFAKSWGPCYSRQFITSCPCWLEILLNNPR [G471S], the “effect of a mutation on the interaction” value is reported as “disrupting interaction”.
